Measurements from publication PMC10073072 (2023).

Tests used:
[1] = target: METTL9^M6 (METTL9^46–318 with six mutations) (human, UniProt Q9H1A3 46-318); test: ITC
METTL9^46–318 = METTL9^46–318 (human, UniProt Q9H1A3 46-318); test: ITC
METTL9^46–318, sequence (Q9H1A3 46-318): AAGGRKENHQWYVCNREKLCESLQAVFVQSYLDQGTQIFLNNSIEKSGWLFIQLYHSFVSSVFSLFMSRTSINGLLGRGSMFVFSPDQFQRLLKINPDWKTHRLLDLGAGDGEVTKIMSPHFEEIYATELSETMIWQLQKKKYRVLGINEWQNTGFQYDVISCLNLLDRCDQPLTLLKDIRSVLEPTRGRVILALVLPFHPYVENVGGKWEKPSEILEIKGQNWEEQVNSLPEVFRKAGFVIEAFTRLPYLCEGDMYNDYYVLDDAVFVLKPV

METTL9^M6 (METTL9^46–318 with six mutations), sequence (Q9H1A3 other isoform, or with tags, fused parts or gaps): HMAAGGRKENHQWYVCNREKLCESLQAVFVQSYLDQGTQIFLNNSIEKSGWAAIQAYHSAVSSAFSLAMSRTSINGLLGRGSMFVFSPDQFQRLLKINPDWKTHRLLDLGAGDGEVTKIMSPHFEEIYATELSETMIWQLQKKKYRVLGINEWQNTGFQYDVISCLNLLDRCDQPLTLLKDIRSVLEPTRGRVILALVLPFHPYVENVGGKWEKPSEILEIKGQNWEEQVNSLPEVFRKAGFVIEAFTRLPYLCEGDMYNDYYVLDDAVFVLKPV

Kd [1] [µM] | Kd (METTL9^46–318) [µM] | Binder
3.6 | 2.3 | RGHGHSHGKGC [mouse S100A9^101–111 peptide]
9 | 9.3 | GHQGHSHGHQGGY [SLC39A5^369–380 peptide]
